Results as given in patent publication EP1241259A1 (UNIVERSITE LIBRE DE BRUXELLES, dated 2002).

Molecular target: ORL1 (Opioid Receptor-Like 1) receptor stably expressed on recombinant CHO(ORL1^+) cells (UniProt P41146 1-370, limits assumed)
Assay: cell-based or functional assay

Sequence of ORL1 (Opioid Receptor-Like 1) receptor stably expressed on recombinant CHO(ORL1^+) cells (P41146 whole entry): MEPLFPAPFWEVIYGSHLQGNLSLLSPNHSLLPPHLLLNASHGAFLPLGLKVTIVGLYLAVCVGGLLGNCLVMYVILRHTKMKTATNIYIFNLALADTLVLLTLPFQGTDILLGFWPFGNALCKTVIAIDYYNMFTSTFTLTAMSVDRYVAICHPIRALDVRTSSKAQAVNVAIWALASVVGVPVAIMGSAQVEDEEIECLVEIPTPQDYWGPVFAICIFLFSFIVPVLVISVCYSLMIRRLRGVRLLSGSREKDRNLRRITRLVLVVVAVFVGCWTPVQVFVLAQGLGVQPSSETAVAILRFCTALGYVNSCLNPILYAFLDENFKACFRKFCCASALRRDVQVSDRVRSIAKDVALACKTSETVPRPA

B1: ^1Tyr analogue of the synthetic heptadecapeptide (peptide)
peptide: YGGFTGARKSARKLANQ
**Q.** B1 was tested. Which “inhibition of forskolin-induced accumulation of cAMP in CHO cells expressing the receptor, IC50” value did it give?
**A.** 1 nM
